These results are taken from patent publication US20220235144A1 (QILU PUGET SOUND BIOTHERAPEUTICS, published 2022).

Assay [1] addresses T1, hSIRPαV1D1 with histidine tag (human, UniProt P78324 31-147).
T1 construct: analyte of the Biacore experiments; also called first immunoglobulin-like domain of human SIRPα variant V1; not shown: histidine tag
The assay can be described thus: SPR (Biacore 3000), IgG captured on anti-human IgG, His-tagged D1 analyte. The text has this:
(§1) Goat anti-human IgG capture antibody (Jackson Laboratories; 109-005-098) was immobilized on the four flow cells in each sensor chip using standard amine coupling chemistry. About 8000 resonance units (RU) of this antibody was immobilized on each flow cell. Flow cells 2, 3, and 4 were used to analyze captured anti-SIRPα antibodies (about 250 to 300 RU were captured on each of flow cells 2, 3, and 4), while flow cell 1 was used as the reference flow cell. The analytes tested were hSIRPαV1D1, hSIRPαV2D1, cynomolgus monkey SIRPαV1D1 (cSIRPαV1D1), cSIRPαV2D1, hSIRPβ1D1, and hSIRPγD1, each of which also included a histidine tag. The sequences of cSIRPαV1D1 and cSIRPαV2D2 are provided in SEQ ID NOs: 143 and 142, respectively. To avoid confusion, the differences between the amino acid sequences of cSIRPαV1D1 and cSIRPαV2D1 are not the same as the differences between the amino acid sequences of hSIRPαV1D1 and hSIRPαV2D1. […] The amino acid sequence of hSIRPβ1D1 can be found in amino acids 30-148 of SEQ ID NO: 144, and the amino acid sequence of hSIRPγD1 can be found in amino acids 31-149 of SEQ ID NO: 141.
(§2) Generally, concentrations from about 0.1×KD to about 10×KD are appropriate for kinetic analysis. From one to six different concentrations were evaluated for each antibody:analyte interaction, depending on the comparisons to be made in an individual experiment. All analyte dilutions were prepared in HPS-EP buffer. Multiple blank (running buffer) injections were run and used to assess and subtract system artifacts. The association phase and dissociation phase for all analyte concentrations were monitored for 180 seconds and 300 seconds, respectively, at a flow rate of 50 μL/min. Between antibody samples, the surfaces of the flow cells were regenerated with 10 mM glycine, pH 1.5 using two injections, each lasting 12 seconds at a flow rate of 50 μL/min.
(§3) The data were analyzed using BIAevaluation software (Biacore, General Electric (GE)). The data was fit using the 1:1 Langmuir model.

The target in assay [2] is T2, hSIRPαV2D1 with histidine tag (human).
T2 construct: analyte of the Biacore experiments; also called first immunoglobulin-like domain of human SIRPα variant V2; not shown: histidine tag
Described as above.
Text: as §1, §2, §3

Assay [3] addresses T3, hSIRPγD1 with histidine tag (human, UniProt Q9P1W8 31-149).
T3 construct: also called first immunoglobulin-like domain of human SIRP Gamma; not shown: histidine tag
The assay is described as above.
Text: as §1, §2, §3

Assay [4] concerns the target T4, cSIRPαV1D1 with histidine tag (cynomolgus monkey (Macaca fascicularis), UniProt Q5TFQ8 30-146 (human entry)).
T4 construct: also called cynomolgus monkey SIRPαV1D1; not shown: histidine tag
T4 chain: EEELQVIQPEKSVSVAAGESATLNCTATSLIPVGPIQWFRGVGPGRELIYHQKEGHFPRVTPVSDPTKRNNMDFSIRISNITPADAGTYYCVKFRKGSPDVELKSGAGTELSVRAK
The description is as above.
Text: as §1, §2, §3

In assay [5] the target is T5, hSIRPβ1D1 with histidine tag (human, UniProt O00241 30-148).
T5 construct: analyte of the Biacore experiments; also called hSIRPβD1; not shown: histidine tag
Described as above.
Text: as §1, §2, §3

In assay [6] the target is T6, cSIRPαV2D1 with histidine tag (cynomolgus monkey (Macaca fascicularis), UniProt Q5TFQ8 30-146 (human entry)).
T6 construct: also called cynomolgus monkey SIRPαV2D1; not shown: histidine tag
T6 chain: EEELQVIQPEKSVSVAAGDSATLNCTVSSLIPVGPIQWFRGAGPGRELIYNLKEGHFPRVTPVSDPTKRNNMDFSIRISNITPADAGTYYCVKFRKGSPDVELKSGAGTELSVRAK
The description is as above.
Text: as §1, §2, §3

Assay [7] has as its target T7, hSIRPαV2 expressed on the cell surface (human, UniProt P78324 31-504).
T7 construct: whole, on cells; also called human SIRPα variant V2
The assay can be described thus: FACS competition on EXPI293 cells stably expressing hSIRPαV2: biotinylated hCD47:Fc (2.5 µg/ml) mixed with serial dilutions of the antibody, bound hCD47:Fc detected with streptavidin-PE (MFI); blocked ligand: hCD47:Fc. How it is done: The x axes show the antibody concentration in μg/ml. The y axes show mean fluorescence intensity (MFI) at about 572 nm (due to binding of biotinylated CD47:Fc, detected by a streptavidin-phycoerythrin conjugate).
Some of the anti-SIRPα antibodies described above were tested in vitro for their ability to inhibit binding of CD47 to hSIRPαV1 or hSIRPαV2 expressed on the surface of EXPI293™ cells stably transfected with DNA encoding these proteins. Briefly, stable transfectants expressing hSIRPαV1 or hSIRPαV2 were seeded into 96-well microtiter plates. […] After 30 minutes incubation, cells were washed, streptavidin-phycoerythrin (streptavidin-PE) was added, and cells were subjected to FACS to detect bound hCD47:Fc. Results were reported as a mean fluorescence intensity (MFI) using FlowJo software (FLOWJO, L.L.C., Ashland, Oreg., USA). FIGS. 4 and 5 show the MFI detected on the y axes of both panels and the antibody concentration on the x axes of both panels.

The term Kd denotes the free concentration of one partner at which half of the binding sites on the other are occupied at equilibrium, for simple one-to-one binding.

T3 sequence (Q9P1W8 31-149): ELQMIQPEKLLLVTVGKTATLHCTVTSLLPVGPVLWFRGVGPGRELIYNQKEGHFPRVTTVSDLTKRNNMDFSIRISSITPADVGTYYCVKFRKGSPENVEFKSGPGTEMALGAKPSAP
T5 sequence (O00241 30-148): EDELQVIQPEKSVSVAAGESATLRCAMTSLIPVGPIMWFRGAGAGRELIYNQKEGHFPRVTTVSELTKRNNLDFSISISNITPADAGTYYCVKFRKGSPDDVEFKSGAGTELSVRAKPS
T2 sequence (chain, as listed by the source limits assumed): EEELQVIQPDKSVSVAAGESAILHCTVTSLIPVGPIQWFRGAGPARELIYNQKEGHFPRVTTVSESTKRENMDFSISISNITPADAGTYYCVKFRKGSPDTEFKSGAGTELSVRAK
T1 sequence (P78324 31-147 limits assumed): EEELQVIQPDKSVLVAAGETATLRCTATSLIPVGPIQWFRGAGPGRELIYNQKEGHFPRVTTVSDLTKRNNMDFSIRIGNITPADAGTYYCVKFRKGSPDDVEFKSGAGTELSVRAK
T7 sequence (P78324 other isoform, or with tags, fused parts or gaps limits assumed): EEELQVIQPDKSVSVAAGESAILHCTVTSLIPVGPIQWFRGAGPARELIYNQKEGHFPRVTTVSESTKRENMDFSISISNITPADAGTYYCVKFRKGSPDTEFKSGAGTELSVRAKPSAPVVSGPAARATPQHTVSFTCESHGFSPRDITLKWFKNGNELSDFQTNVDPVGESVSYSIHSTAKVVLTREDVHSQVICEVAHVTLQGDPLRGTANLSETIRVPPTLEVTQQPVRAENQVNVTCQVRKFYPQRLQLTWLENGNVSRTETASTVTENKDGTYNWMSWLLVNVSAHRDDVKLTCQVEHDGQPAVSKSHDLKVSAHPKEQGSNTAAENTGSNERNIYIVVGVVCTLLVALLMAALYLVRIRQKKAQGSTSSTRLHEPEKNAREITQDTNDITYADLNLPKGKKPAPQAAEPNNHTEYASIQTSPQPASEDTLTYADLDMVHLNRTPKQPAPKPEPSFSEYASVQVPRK

B1: Ab2_G4 (antibody, human IgG4 S228P, kappa, V domains shown)
VH: EVQLVESGGGLVKPGGSLRLSCAASGFTFSSYVMSWVRQTPGKGLEWVATISSGGTYTYYPDSVKGRFTLSRDNAKNSLYLQMNSLRAEDTAVYYCASSVDGSAFDYWGQGTTVTVSS
VL: DIVITQSPASLAVSLGERATISCRASESVDSYGMSFMHWYQQKPGQPPKLLIYRASNLESGVPDRFSGSGSRTDFTLTINPLQAEDVATYYCHQSSENLPWTFGGGTKVEIKR
notes: human IgG4 format
In the case of B1, the equilibrium dissociation constant (Kd) in assay [1] was 226 nM; in assay [2] it was 3.06 nM; in assay [3] it was approximately 944 nM; in assay [4], 145 nM; in assay [5], 53.6 nM; in assay [6] it was approximately 709 nM.

B2: Ab11_G2 (antibody, human IgG2, V domains shown)
VH: EVQLVESGGGLVKPGGSLRLSCAASGFTFSSYVMSWVRQTPGKGLEWVATISSGGTYTYYPDSVKGRFTLSRDNAKNSLYLQMNSLRAEDTAVYYCASQLTGSEFDYWGQGTTVTVSS
VL: DIVITQSPASLAVSLGERATISCRASESVDSYGNSFMHWYQQKPGQPPKLLIYRASNLESGVPDRFSGSGSRTDFTLTINPLQAEDVATYYCHQSGDLPWTFGGGTKVEIKR
notes: same antibody as Ab11_G4 except human IgG2 CH1, hinge, CH2 and CH3
In the case of B2, the Kd in assay [1] is 125 nM; in assay [2] it was 1.92 nM; in assay [3] it was approximately 3060 nM; in assay [4], 98 nM; in assay [5], 8.58 nM; in assay [6], approximately 475 nM.

B3: Ab1_G2 (antibody, human IgG2, V domains shown)
VH: EVQLVESGGGLVKPGGSLRLSCAASGFTFSSYVMSWVRQTPGKGLEWVATISSGGTYTYYPSSVKGRFTLSRDNAKNSLYLQMNSLRAEDTAVYYCASSLTGSSFDYWGQGTTVTVSS
VL: DIVLTQSPASLAVSLGERATISCRASESVDLYGTSFMHWYQQKPGQPPKLLIYRASNLESGVPDRFSGSGSRTDFTLTINPLQAEDVATYYCHQSSDELPWTFGGGTKVEIKR
Turning to B3, the Kd in assay [1] is 50.7 nM; in assay [2], 2.51 nM; in assay [3], 168 nM; in assay [4], 26.9 nM; in assay [5], 1.39 nM; in assay [6], 287 nM.

B4: Ab9_G4 (antibody, human IgG4 S228P, kappa, V domains shown)
VH: EVQLVESGGGLVKPGGSLRLSCAASGFTFSSYVMSWVRQTPGKGLEWVATISSGGTYTYYPNSVKGRFTLSRDNAKNSLYLQMNSLRAEDTAVYYCVSSMTGSSFDYWGQGTTVTVSS
VL: DIVITQSPASLAVSLGERATISCRASESVDSYGNSFMHWYQQKPGQPPKLLIYRASNLESGVPDRFSGSGSRTDFTLTINPLQAEDVATYYCHQSSEQLPWTFGGGTKVEIKR
notes: human IgG4 format
In the case of B4, the Kd in assay [1] is 102 nM; in assay [2], 2.97 nM; in assay [3], approximately 616 nM; in assay [4], 183 nM; in assay [5] it was 6.43 nM; in assay [6], approximately 432 nM. Also, the “IC50 (read off the curve)” value in assay [7] was approximately 0.4 µg/mL.

B5: Ab9_G2 (antibody, human IgG2, V domains shown)
VH: EVQLVESGGGLVKPGGSLRLSCAASGFTFSSYVMSWVRQTPGKGLEWVATISSGGTYTYYPNSVKGRFTLSRDNAKNSLYLQMNSLRAEDTAVYYCVSSMTGSSFDYWGQGTTVTVSS
VL: DIVITQSPASLAVSLGERATISCRASESVDSYGNSFMHWYQQKPGQPPKLLIYRASNLESGVPDRFSGSGSRTDFTLTINPLQAEDVATYYCHQSSEQLPWTFGGGTKVEIKR
notes: same antibody as Ab9_G4 except human IgG2 CH1, hinge, CH2 and CH3
With B5, the Kd in assay [1] is 75 nM; in assay [2], 2.11 nM; in assay [3], approximately 457 nM; in assay [4] it was 155 nM; in assay [5], 6.63 nM; in assay [6], approximately 426 nM.

B6: Ab4_G4 (antibody, human IgG4 S228P, kappa)
heavy: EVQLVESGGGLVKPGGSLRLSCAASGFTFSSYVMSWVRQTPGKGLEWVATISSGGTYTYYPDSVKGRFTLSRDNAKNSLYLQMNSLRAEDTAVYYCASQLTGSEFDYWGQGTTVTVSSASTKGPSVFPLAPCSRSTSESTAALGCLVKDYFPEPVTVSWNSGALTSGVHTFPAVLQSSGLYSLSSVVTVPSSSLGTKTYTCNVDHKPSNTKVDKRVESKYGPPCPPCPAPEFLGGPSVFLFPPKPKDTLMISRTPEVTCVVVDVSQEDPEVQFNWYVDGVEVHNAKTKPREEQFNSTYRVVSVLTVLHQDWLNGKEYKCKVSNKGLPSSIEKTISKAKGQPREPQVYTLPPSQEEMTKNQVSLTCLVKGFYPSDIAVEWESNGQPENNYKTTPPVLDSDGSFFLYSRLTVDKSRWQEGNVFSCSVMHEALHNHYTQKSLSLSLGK
light: DIVITQSPASLAVSLGERATISCRASESVDSYGNSFMHWYQQKPGQPPKLLIYRASNLESGVPDRFSGSGSRTDFTLTINPLQAEDVATYYCHQSADLPWTFGGGTKVEIKRTVAAPSVFIFPPSDEQLKSGTASVVCLLNNFYPREAKVQWKVDNALQSGNSQESVTEQDSKDSTYSLSSTLTLSKADYEKHKVYACEVTHQGLSSPVTKSFNRGEC
notes: human IgG4 format
Regarding B6, the Kd in assay [1] was 307 nM; in assay [2], 4.04 nM; in assay [3], approximately 4560 nM; in assay [4] it was 165 nM; in assay [5], 24.3 nM; in assay [6] it was approximately 714 nM.

B7: Ab8_G4 (antibody, human IgG4 S228P, kappa, V domains shown)
VH: EVQLVESGGGLVKPGGSLRLSCAASGFTFSSYVMSWVRQTPGKGLEWVATISSGGTYTYYPESVKGRFTLSRDNAKNSLYLQMNSLRAEDTAVYYCASQLTGSEFDYWGQGTTVTVSS
VL: DIVMTQSPASLAVSLGERATISCRASESVDSYGNSFMHWYQQKPGQPPKLLIYRASNLESGVPDRFSGSGSRTDFTLTINPLQAEDVATYYCHQSADLPWTFGGGTKVEIKR
notes: human IgG4 format
Turning to B7, the Kd in assay [1] is 411 nM; in assay [2] it was 6.02 nM; in assay [3], approximately 6200 nM; in assay [4], 256 nM; in assay [5], 44.3 nM; in assay [6] it was approximately 1050 nM.

B8: Ab12_G4 (antibody, human IgG4 S228P, kappa)
heavy: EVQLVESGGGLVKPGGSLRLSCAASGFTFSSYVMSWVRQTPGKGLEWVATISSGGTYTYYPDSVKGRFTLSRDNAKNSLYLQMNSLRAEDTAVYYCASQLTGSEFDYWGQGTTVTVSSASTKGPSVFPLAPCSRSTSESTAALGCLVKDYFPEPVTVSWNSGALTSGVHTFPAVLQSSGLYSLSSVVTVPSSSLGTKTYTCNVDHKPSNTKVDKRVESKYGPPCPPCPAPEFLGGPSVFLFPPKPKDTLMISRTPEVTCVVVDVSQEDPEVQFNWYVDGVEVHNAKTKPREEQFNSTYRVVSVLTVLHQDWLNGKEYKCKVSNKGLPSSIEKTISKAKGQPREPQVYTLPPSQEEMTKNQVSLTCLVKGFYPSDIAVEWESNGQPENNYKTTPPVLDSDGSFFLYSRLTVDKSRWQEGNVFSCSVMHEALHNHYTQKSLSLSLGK
light: DIVLTQSPASLAVSLGERATISCRASESVDSYGNSFMHWYQQKPGQPPKLLIYRASNLESGVPDRFSGSGSRTDFTLTINPLQAEDVATYYCHQSADLPWTFGGGTKVEIKRTVAAPSVFIFPPSDEQLKSGTASVVCLLNNFYPREAKVQWKVDNALQSGNSQESVTEQDSKDSTYSLSSTLTLSKADYEKHKVYACEVTHQGLSSPVTKSFNRGEC
notes: human IgG4 format
With B8, the Kd in assay [1] is 348 nM; in assay [2], 4.6 nM; in assay [3], approximately 5020 nM; in assay [4] it was 197 nM; in assay [5], 29 nM; in assay [6] it was approximately 727 nM.
